From patent US10081665B2, “Peptides and combination of peptides for use in immunotherapy against various tumors” (immatics biotechnologies GmbH, priority 2015, dated 2018) come the findings set out here.

The target of this experiment is HLA-A*02:01 (Homo sapiens, UniProt P04439, D140Y/D185E/D98H/E176V/E277Q/G131W/G231S/I119V/I121R/I166T/I218V/L300P/L318F/N151K/N90K/P208A/P217A/Q86G/Q94H/R138H/R169H/T345S). Put plainly: MHC binding assay (UV-ligand exchange, beta2m ELISA). To be noted: binding to HLA-A*02:01, β2m ELISA. The text has this: Candidate peptides for T cell based therapies according to the present invention were further tested for their MHC binding capacity (affinity). The individual peptide-MHC complexes were produced by UV-ligand exchange, where a UV-sensitive peptide is cleaved upon UV-irradiation, and exchanged with the peptide of interest as analyzed. Only peptide candidates that can effectively bind and stabilize the peptide-receptive MHC molecules prevent dissociation of the MHC complexes. To determine the yield of the exchange reaction, an ELISA was performed based on the detection of the light chain (β2m) of stabilized MHC complexes. The assay was performed as generally described in Rodenko et al. (Rodenko et al., 2006).
96 well MAXISorp plates (NUNC) were coated over night with 2 ug/ml streptavidin in PBS at room temperature, washed 4× and blocked for 1 h at 37° C. in 2% BSA containing blocking buffer. Refolded HLA-A*02:01/MLA-001 monomers served as standards, covering the range of 15-500 ng/ml. Peptide-MHC monomers of the UV-exchange reaction were diluted 100 fold in blocking buffer. Samples were incubated for 1 h at 37° C., washed four times, incubated with 2 ug/ml HRP conjugated anti-82m for 1 h at 37° C., washed again and detected with TMB solution that is stopped with […]. Absorption was measured at 450 nm. Candidate peptides that show a high exchange yield (preferably higher than 50%, most preferred higher than 75%) are generally preferred for a generation and production of antibodies or fragments thereof, and/or T cell receptors or fragments thereof, as they show sufficient avidity to the MHC molecules and prevent dissociation of the MHC complexes.
A general note: An ELISA detects its analyte on a solid surface through an enzyme-linked reagent.
Turning to “138 (GIINKLVTV; listed as Homo sapiens) [compound 138]”, the “Peptide exchange (MHC class I binding score, peptide exchange yield)” value (shortened to “Peptide exchange”) is recorded as “++ (≥20% = ++)”.

“139 (IILENIQSL; listed as Homo sapiens) [compound 139]”: the “Peptide exchange” value was “+++ (≥50 = +++)”.

Consider “140 (FLDSQITTV; listed as Homo sapiens) [compound 140]”, for which the “Peptide exchange” value is listed as “+++ (≥50 = +++)”.

On to “141 (NIDINNNEL; listed as Homo sapiens) [compound 141]”, for which the “Peptide exchange” value is reported as “++ (≥20% = ++)”.

As for “142 (LLDAAHASI; listed as Homo sapiens) [compound 142]”, the “Peptide exchange” value was “++ (≥20% = ++)”.

Consider “143 (MLWESIMRV; listed as Homo sapiens) [compound 143]”, for which the “Peptide exchange” value is listed as “+++ (≥50 = +++)”.

In the case of “144 (FLISQTPLL; listed as Homo sapiens) [compound 144]”, the “Peptide exchange” value is recorded as “+++ (≥50 = +++)”.

For the substance “145 (ALEEKLENV; listed as Homo sapiens) [compound 145]”, the “Peptide exchange” value is “+++ (≥50 = +++)”.

For the substance “146 (VVAAHLAGA; listed as Homo sapiens) [compound 146]”, the “Peptide exchange” value is recorded as “++ (≥20% = ++)”.

As for “147 (GLLSALENV; listed as Homo sapiens) [compound 147]”, the “Peptide exchange” value is listed as “+++ (≥50 = +++)”.

Take “148 (YLILSSHQL; listed as Homo sapiens) [compound 148]”: the “Peptide exchange” value is listed as “+++ (≥50 = +++)”.

“149 (NMADGQLHQV; listed as Homo sapiens) [compound 149]”: the “Peptide exchange” value is reported as “++ (≥20% = ++)”.

For “150 (VLLDMVHSL; listed as Homo sapiens) [compound 150]”, the “Peptide exchange” value is given as “+++ (≥50 = +++)”.

Regarding “151 (DISKRIQSL; listed as Homo sapiens) [compound 151]”, the “Peptide exchange” value is on record as “++ (≥20% = ++)”.

As for “153 (KLVELEHTL; listed as Homo sapiens) [compound 153]”, the “Peptide exchange” value is on record as “+++ (≥50 = +++)”.

Consider “154 (AIIKEIQTV; listed as Homo sapiens) [compound 154]”, for which the “Peptide exchange” value is reported as “++ (≥20% = ++)”.

Regarding “155 (TLDSYLKAV; listed as Homo sapiens) [compound 155]”, the “Peptide exchange” value is given as “++ (≥20% = ++)”.

In the case of “158 (YLDPLWHQL; listed as Homo sapiens) [compound 158]”, the “Peptide exchange” value was “+++ (≥50 = +++)”.

As for “159 (QLGPVPVTI; listed as Homo sapiens) [compound 159]”, the “Peptide exchange” value is recorded as “+++ (≥50 = +++)”.

As to “160 (TLQEWLTEV; listed as Homo sapiens) [compound 160]”, the “Peptide exchange” value was “+++ (≥50 = +++)”.

Regarding “161 (NLLDENVCL; listed as Homo sapiens) [compound 161]”, the “Peptide exchange” value is given as “++++ (≥75% = ++++)”.

With “162 (GLLGNLLTSL; listed as Homo sapiens) [compound 162]”, the “Peptide exchange” value is “+++ (≥50 = +++)”.

With “163 (GLEERLYTA; listed as Homo sapiens) [compound 163]”, the “Peptide exchange” value is on record as “++ (≥20% = ++)”.

Take “164 (MLIIRVPSV; listed as Homo sapiens) [compound 164]”: the “Peptide exchange” value is “+++ (≥50 = +++)”.

Regarding “165 (SLLDYEVSI; listed as Homo sapiens) [compound 165]”, the “Peptide exchange” value was “+++ (≥50 = +++)”.

Consider “166 (LLGDSSFFL; listed as Homo sapiens) [compound 166]”, for which the “Peptide exchange” value was “+++ (≥50 = +++)”.

For the substance “167 (LVVDEGSLVSV; listed as Homo sapiens) [compound 167]”, the “Peptide exchange” value was “+++ (≥50 = +++)”.

As for “168 (VIFEGEPMYL; listed as Homo sapiens) [compound 168]”, the “Peptide exchange” value was “+++ (≥50 = +++)”.

Turning to “169 (ALADLSVAV; listed as Homo sapiens) [compound 169]”, the “Peptide exchange” value is reported as “+++ (≥50 = +++)”.

As to “170 (FIAAVVEKV; listed as Homo sapiens) [compound 170]”, the “Peptide exchange” value is “++ (≥20% = ++)”.

Regarding “171 (LLLLDVPTA; listed as Homo sapiens) [compound 171]”, the “Peptide exchange” value is “++ (≥20% = ++)”.

As to “173 (RLIDIYKNV; listed as Homo sapiens) [compound 173]”, the “Peptide exchange” value is given as “+++ (≥50 = +++)”.

As for “174 (ALYSGDLHAA; listed as Homo sapiens) [compound 174]”, the “Peptide exchange” value is reported as “++ (≥20% = ++)”.

As for “175 (SLLDLVQSL; listed as Homo sapiens) [compound 175]”, the “Peptide exchange” value is “+++ (≥50 = +++)”.

In the case of “176 (VQSGLRILL; listed as Homo sapiens) [compound 176]”, the “Peptide exchange” value is given as “++ (≥20% = ++)”.

Regarding “177 (ALINVLNAL; listed as Homo sapiens) [compound 177]”, the “Peptide exchange” value was “+++ (≥50 = +++)”.

In the case of “178 (SLVSWQLLL; listed as Homo sapiens) [compound 178]”, the “Peptide exchange” value is on record as “++++ (≥75% = ++++)”.

“179 (TLGEIIKGV; listed as Homo sapiens) [compound 179]”: the “Peptide exchange” value is “+++ (≥50 = +++)”.

As for “180 (RLYEEEIRI; listed as Homo sapiens) [compound 180]”, the “Peptide exchange” value is listed as “+++ (≥50 = +++)”.

As to “181 (LLWAPTAQA; listed as Homo sapiens) [compound 181]”, the “Peptide exchange” value is given as “+++ (≥50 = +++)”.

In the case of “182 (GLQDGFQITV; listed as Homo sapiens) [compound 182]”, the “Peptide exchange” value is on record as “+++ (≥50 = +++)”.

Take “184 (ALDSTIAHL; listed as Homo sapiens) [compound 184]”: the “Peptide exchange” value was “++ (≥20% = ++)”.

For the substance “185 (TLYQGLPAEV; listed as Homo sapiens) [compound 185]”, the “Peptide exchange” value was “++ (≥20% = ++)”.

On to “187 (SILKEDPFL; listed as Homo sapiens) [compound 187]”, for which the “Peptide exchange” value is “++ (≥20% = ++)”.

With “188 (VLGEEQEGV; listed as Homo sapiens) [compound 188]”, the “Peptide exchange” value is on record as “++ (≥20% = ++)”.

On to “190 (SLSTELFKV; listed as Homo sapiens) [compound 190]”, for which the “Peptide exchange” value is “+++ (≥50 = +++)”.

As to “191 (AAIEIFEKV; listed as Homo sapiens) [compound 191]”, the “Peptide exchange” value is listed as “+++ (≥50 = +++)”.

“192 (TLLPSSGLVTL; listed as Homo sapiens) [compound 192]”: the “Peptide exchange” value was “++ (≥20% = ++)”.

On to “193 (ALFHMNILL; listed as Homo sapiens) [compound 193]”, for which the “Peptide exchange” value is listed as “+++ (≥50 = +++)”.

Consider “194 (KLLEEVQLL; listed as Homo sapiens) [compound 194]”, for which the “Peptide exchange” value is listed as “++ (≥20% = ++)”.

In the case of “195 (VIIQNLPAL; listed as Homo sapiens) [compound 195]”, the “Peptide exchange” value is recorded as “+++ (≥50 = +++)”.

Turning to “198 (ILTNKVVSV; listed as Homo sapiens) [compound 198]”, the “Peptide exchange” value is reported as “++ (≥20% = ++)”.

As for “199 (SVADLAHVL; listed as Homo sapiens) [compound 199]”, the “Peptide exchange” value is listed as “++ (≥20% = ++)”.

For “200 (IMPTFDLTKV; listed as Homo sapiens) [compound 200]”, the “Peptide exchange” value is “+++ (≥50 = +++)”.

For the substance “204 (SEWGSPHAAVP; listed as Homo sapiens) [compound 204]”, the “Peptide exchange” value is reported as “+++ (≥50 = +++)”.

For “206 (GLDAFRIFL; listed as Homo sapiens) [compound 206]”, the “Peptide exchange” value is on record as “++++ (≥75% = ++++)”.

Take “207 (KLFETVEEL; listed as Homo sapiens) [compound 207]”: the “Peptide exchange” value was “+++ (≥50 = +++)”.
